The results in this text go back to patent US20100197009A1.

In test [1] the target is biotinylated HLA-A2-AviTag/MelanApeptide/β2 microglobulin complex. In words: flow cytometry of streptavidin M280 beads coated with 0.015 µg of the biotinylated complex, stained with FITC anti-HLA ABC.
Test [2] shares this target. In words: flow cytometry of streptavidin M280 beads saturated with the biotinylated complex, stained with anti-HLA-ABC, legend of FIG. 4.
Test [3] has the same target. In words: flow cytometry of streptavidin M280 beads coated with the biotinylated complex (saturating, 2 µg), stained with FITC anti-HLA ABC.

In the case of “streptavidin on M280 beads (Dynal) (from UniProt P22629 37-163)”, the MFI in test [1] came out at 24.5 MFI; in test [2], 305 MFI; in test [3], 300 MFI.
